The target of test [1] is T1, mouse TNFR2 stably overexpressed on HEK293T cells (mouse (Mus musculus), UniProt P25119 23-474).
T1 construct: also called 鼠TNFR2
T1 sequence: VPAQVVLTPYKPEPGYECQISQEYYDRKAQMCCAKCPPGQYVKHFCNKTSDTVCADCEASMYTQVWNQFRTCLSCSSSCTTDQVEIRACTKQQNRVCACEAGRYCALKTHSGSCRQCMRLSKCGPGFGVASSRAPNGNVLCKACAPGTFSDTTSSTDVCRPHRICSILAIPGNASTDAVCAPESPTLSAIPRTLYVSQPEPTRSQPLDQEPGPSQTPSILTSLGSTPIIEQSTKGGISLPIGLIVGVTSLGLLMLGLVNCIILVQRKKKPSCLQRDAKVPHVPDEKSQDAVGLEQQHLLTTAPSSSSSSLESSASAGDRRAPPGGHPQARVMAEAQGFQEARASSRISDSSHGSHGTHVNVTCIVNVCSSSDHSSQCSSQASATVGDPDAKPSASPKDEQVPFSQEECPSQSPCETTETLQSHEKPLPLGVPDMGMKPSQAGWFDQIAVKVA
The test can be described thus: flow cytometry on HEK293T cells stably overexpressing mouse TNFR2. In general terms: Flow cytometry measures light scatter and fluorescence of single cells or particles in a stream.

Test [2] deals with T2, human TNFR1 stably overexpressed on CHO-K1 cells (human (Homo sapiens), UniProt P19438 30-455).
T2 construct: also called 人TNFR1; TNFRSF1A
T2 sequence: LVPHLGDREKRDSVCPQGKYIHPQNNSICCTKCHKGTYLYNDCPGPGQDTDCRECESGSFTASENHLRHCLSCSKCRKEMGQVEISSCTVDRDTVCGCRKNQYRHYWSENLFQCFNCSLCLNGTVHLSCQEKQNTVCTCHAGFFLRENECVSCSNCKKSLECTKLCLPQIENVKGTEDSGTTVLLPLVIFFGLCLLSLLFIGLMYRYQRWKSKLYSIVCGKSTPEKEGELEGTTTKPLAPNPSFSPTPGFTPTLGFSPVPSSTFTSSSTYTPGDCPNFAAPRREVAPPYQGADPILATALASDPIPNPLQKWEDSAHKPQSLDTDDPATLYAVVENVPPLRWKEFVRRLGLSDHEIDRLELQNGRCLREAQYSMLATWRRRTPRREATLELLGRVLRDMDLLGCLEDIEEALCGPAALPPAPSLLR
The test can be described thus: flow cytometry on CHO-K1 cells stably overexpressing human TNFR1.

Test [3] concerns the target T3, human TNFR2 expressed on cells (stably overexpressed on HEK293T, CHO-K1 or Jurkat cells; endogenous on THP1) (human (Homo sapiens), UniProt P20333 23-461).
T3 construct: also called 人TNFR2; hTNFR2
T3 sequence: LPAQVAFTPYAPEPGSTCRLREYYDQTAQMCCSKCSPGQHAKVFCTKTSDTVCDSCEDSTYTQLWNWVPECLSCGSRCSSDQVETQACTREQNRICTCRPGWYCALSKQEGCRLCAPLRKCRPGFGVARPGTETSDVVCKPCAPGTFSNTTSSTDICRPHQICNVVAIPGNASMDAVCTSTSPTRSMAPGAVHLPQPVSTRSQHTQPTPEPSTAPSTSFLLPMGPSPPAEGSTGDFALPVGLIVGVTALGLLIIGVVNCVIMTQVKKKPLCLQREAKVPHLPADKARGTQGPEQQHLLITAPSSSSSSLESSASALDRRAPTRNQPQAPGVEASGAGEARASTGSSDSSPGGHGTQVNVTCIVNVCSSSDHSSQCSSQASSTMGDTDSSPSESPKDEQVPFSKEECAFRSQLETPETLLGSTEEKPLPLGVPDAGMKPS
The test can be described thus: binding to cells stably overexpressing human TNFR2 (flow cytometry / imaging; text says HEK293T, table title says CHO-K1).

Usually EC50 stands for the concentration that produces a half-maximal response.

B1: R2_mAb-3 (antibody, V domains shown)
VH: QVQLQESGPGLVKPSETLSLTCTVSGGSISSYYWSWIRQAPGKGLEWIGYIYYSGSTNYNPSLKSRVTISVDTSKNQFSLKLSSVTAADTAVYYCARDDGSSDYGMDVWGQGTTVTVSS
VL: AIQLTQSPSSLSASVGDRVTITCRASQGISSALAWYQQKPGKAPKLLIYDASSLESGVPSRFTGSGTDFTLTISSLQPEDFATYYCQQFNNYMYTFGQGTKLEIK
notes: also called R2-3
On to B1, for which the binding result in test [1] and in test [2] was “no binding (tested: 10μg/mL)” each time. The molecule also showed an EC50 in test [3] of 0.38 nM.

B2: R2_mAb-2 (antibody, V domains shown)
VH: QVQLVQSGPEVKKPGASVKVSCKASGYTFTNYGISWVRQAPGQGLEWMGWINAYNGNTNYAQKLQGRVTMTTDTSTSTAYMELRSLRSDDTAVYYCARDGGYGSGTYHNDYYYYYGMDVWGQGTTVTVSS
VL: EIVLTQSPDFQSMTPEEKVTITCRASQSIGSNLHWYQQKPDQSPKLLIKFASQSISGVPSRFSGSGSGTDFTLTINSLEAEDAATYYCHQSSSLPFTFGPGTKVDIK
notes: also called R2-2
For B2, the binding result in test [1] and in test [2] was “no binding (tested: 10μg/mL)” throughout. The molecule also showed an EC50 in test [3] of 0.35 nM.

B3: R2_mAb-4 (antibody, V domains shown)
VH: QVQLVQSGAEVRKPGASVKVSCKASGYTFTSYSVTWVRQAPGQGLEWMGWINAFSGNTHYAQNLQDRVTMTTDTSTSTAYMELRSLRSDDTAVYYCAREEGSGSYEDYYGMDVWGQGTTVTVSS
VL: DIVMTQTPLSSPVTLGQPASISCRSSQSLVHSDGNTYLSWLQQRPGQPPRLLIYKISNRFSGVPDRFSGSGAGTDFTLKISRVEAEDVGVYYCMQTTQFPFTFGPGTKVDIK
notes: The mouse IgG2a chimera was used only in the tumour models; also called R2-4
B3: the binding result in test [1] and in test [2] was “no binding (tested: 10μg/mL)” throughout. The molecule also yielded an EC50 in test [3] of 0.11 nM.

B4: R2_mAb-5 (antibody, V domains shown)
VH: QVQLVQSGAEVKKPGASVTVSCKASGYTFSTYGIIWVRQAPGQGLEWMGWISAFNGNANSAQKLQDRVTMTTDTSTSTAYMELRSLRSDDTAVYYCARGEDFFDYWGQGTLVTVSS
VL: DIVMTQTPLSSPVTLGQPASISCRSSQSLVHSDGNTYLSWLQQRPGQPPRLLIYKVSSRFSGVPDRFSGSGAGTDFTLKISRVEAEDVGVYYCTQSTQFPFTFGRGTKLEIK
notes: The mouse IgG2a, IgG1 and IgG1 D265A chimeras were used only in the tumour models; also called R2-5
For the molecule B4, the binding result in test [1] and in test [2] was “no binding (tested: 10μg/mL)” in each case. This molecule also came in with an EC50 in test [3] of 0.1 nM.

B5: R2_mAb-6 (antibody, V domains shown)
VH: QVQLVQSGAEVKKPGASVKVSCKASGYTFLSYGLSWVRQAPGQGLEWMGWINAYNGNTNYAQNLQDRVTMTTDTSTSTAYMELRSLRSDDMAVYYCARWDILTAYYSSDAFDIWGQGTMVTVSS
VL: DIVMTQTPLSSPVTLGQPASISCRSSQSLVHSDGNTYLNWLQQRPGQPPRLLIYKVSNRFSGVPDRFSGSGAGTDFTLKISRVEAEDVGVYYCTQTTQFPITFGQGTRLEIK
notes: also called R2-6
As to B5, the binding result in test [1] and in test [2] was “no binding (tested: 10μg/mL)” each time. In test [3], a half-maximal response (EC50) required 0.14 nM.

B6: R2_mAb-1 (antibody, V domains shown)
VH: QVQLVESGGGVVQPGRSLRLSCAASGFTFSSYGMHWVRQAPGKGLEWVAVIWFDEDNKDYADSVKGRFTISRDNSKNTLYLQMSSLRAEDTAVYYCARDNDILTGYYYYYGMDVWGQGTTVTVSS
VL: DIQLTQSPSFLSASVGDRVTITCRASQDISSYLAWYQQKPGKAPKLLIYAASTLQSGVPSRFSGSGSGTEFTLTISSLQPEDFATYYCQQLNSYPPTFGQGTKVEIK
notes: The VH/VL pair is read from parallel lists; also called R2-1
B6: the binding result in test [1] and in test [2] was “no binding (tested: 10μg/mL)” throughout. The molecule further yielded an EC50 in test [3] of 0.1 nM.

These data come from patent CN117425675A (XINSHI BIOPHARMACEUTICAL CO LTD, dated 2024).
